Experimental data taken from patent US20200024330A1.

Legend:
Assay in all cases: cell-based or functional assay
[1] = biological target: HIV-1 SF162 envelope protein (Env) on pseudotyped virus (HIV-1 isolate SF162) (UniProt P19550)
[2] = biological target: HIV-1 92BR020 envelope glycoprotein (Env) (HIV-1)
[3] = biological target: HIV-1 Env of isolate 92BR020 (HIV-1)
[4] = biological target: HIV-1 JR-CSF Env D325A (HIV-1 isolate JR-CSF) (UniProt P20871)
[5] = biological target: HIV-1 JR-CSF Env I307A (HIV-1 JR-CSF) (UniProt P20871)
[6] = biological target: HIV-1 JR-CSF Env I415A (HIV-1 (isolate JR-CSF)) (UniProt P20871)
[7] = biological target: HIV-1 JR-CSF Env N241A (HIV-1 JR-CSF) (UniProt P20871)
[8] = biological target: HIV-1 JR-CSF Env N276A (HIV-1 JR-CSF) (UniProt P20871)
[9] = biological target: HIV-1 JR-CSF Env N302A (HIV-1 JR-CSF) (UniProt P20871)
[10] = biological target: HIV-1 JR-CSF Env N396A (HIV-1 (isolate JR-CSF)) (UniProt P20871)
[11] = biological target: HIV-1 JR-CSF Env N411A (HIV-1 (isolate JR-CSF)) (UniProt P20871)
[12] = biological target: HIV-1 JR-CSF Env P299A (HIV-1 JR-CSF) (UniProt P20871)
[13] = biological target: HIV-1 JR-CSF Env P313A (HIV-1 JR-CSF) (UniProt P20871)
[14] = biological target: HIV-1 JR-CSF Env R350A (HIV-1 isolate JR-CSF) (UniProt P20871)
[15] = biological target: HIV-1 JR-CSF Env R419A (HIV-1 (isolate JR-CSF)) (UniProt P20871)
[16] = biological target: HIV-1 JR-CSF Env S387A (HIV-1 (isolate JR-CSF)) (UniProt P20871)
[17] = biological target: HIV-1 JR-CSF Env T202A (HIV-1 JR-CSF) (UniProt P20871)
[18] = biological target: HIV-1 JR-CSF Env T341A (HIV-1 isolate JR-CSF) (UniProt P20871)
[19] = biological target: HIV-1 JR-CSF Env T394A (HIV-1 (isolate JR-CSF)) (UniProt P20871)
[20] = biological target: HIV-1 JR-CSF Env T413A (HIV-1 (isolate JR-CSF)) (UniProt P20871)
[21] = biological target: HIV-1 JRFL envelope glycoprotein (Env) (HIV-1)
[22] = biological target: HIV-1 93UG077 Env (pseudovirus) (HIV-1)
[23] = biological target: HIV-1 APV13 Env (pseudovirus) (HIV-1)
[24] = biological target: HIV-1 APV17 Env (pseudovirus) (HIV-1)
[25] = biological target: HIV-1 MGRM-D-001 Env (pseudovirus) (HIV-1)
[26] = biological target: HIV-1 MGRM-D-018 Env (pseudovirus) (HIV-1)
[27] = biological target: HIV-1 92RW020 Env (pseudovirus) (HIV-1 92RW020)
[28] = biological target: HIV-1 Env of isolate 92RW009 (HIV-1)
[29] = biological target: HIV-1 Env of isolate 92RW024 (HIV-1)
[30] = biological target: HIV-1 Env of isolate MGRM-C-025 (subtype C), on pseudovirus (HIV-1)
[31] = biological target: HIV-1 Env of isolate MGRM-C-028 (subtype C), on pseudovirus (HIV-1)
[32] = biological target: HIV-1 Env of isolate MGRM-Chronic-B-024 (subtype B) (HIV-1)
[33] = biological target: HIV-1 Env of isolate PVO.4 (subtype B) (HIV-1)
[34] = biological target: HIV-1 JR-CSF Env, wild type (pseudovirus) (HIV-1 JR-CSF) (UniProt P20871)
[35] = biological target: HIV-1 envelope glycoprotein (Env) of isolate 6535.3, on pseudovirus (HIV-1)
[36] = biological target: HIV-1 envelope glycoprotein (Env) of isolate APV_17, on pseudovirus (HIV-1)
[37] = biological target: HIV-1 envelope glycoprotein (Env) of isolate CAAN.A2, on pseudovirus (HIV-1)
[38] = biological target: HIV-1 envelope glycoprotein (Env) of isolate MGRM-Chronic-B-002, on pseudovirus (HIV-1)
[39] = biological target: HIV-1 envelope glycoprotein (Env) of isolate MGRM-Chronic-B-008, on pseudovirus (HIV-1)
[40] = biological target: HIV-1 IAVI-C3 envelope glycoprotein (Env) on pseudovirus (HIV-1)

With 1495_C14 (PGC14) (antibody) as the substance, how does the IC50, pseudovirus neutralization, 1 hour Virus/Ab Incubation [1] read?
Its IC50, pseudovirus neutralization, 1 hour Virus/Ab Incubation is 0.0069 µg/mL.

And the IC50, pseudovirus neutralization, 18 hour Virus/Ab Incubation [1]?
The IC50, pseudovirus neutralization, 18 hour Virus/Ab Incubation was less than 0.0025 µg/mL.

Which results are given for PGT-121 (antibody)?
IC50 neutralization [2]: 0.0177 µg/mL; Primary Neutralization Index (B cell culture well 4838 L06) [3]: 4.9; Primary Neutralization Index (B cell culture well 4873 E03) [3]: 3.6; Fold IC50 increase relative to wild-type [4]: 2 fold; Fold IC50 increase relative to wild-type [5]: 3.7 fold; Fold IC50 increase relative to wild-type [6]: 0.6 fold; Fold IC50 increase relative to wild-type [7]: 0.5 fold; Fold IC50 increase relative to wild-type [8]: 0.8 fold; Fold IC50 increase relative to wild-type [9]: 0.7 fold; Fold IC50 increase relative to wild-type [10]: 1.3 fold; Fold IC50 increase relative to wild-type [11]: 0.4 fold; Fold IC50 increase relative to wild-type [12]: 0.2 fold; Fold IC50 increase relative to wild-type [13]: 0.5 fold; Fold IC50 increase relative to wild-type [14]: 0.8 fold; Fold IC50 increase relative to wild-type [15]: 1.8 fold; Fold IC50 increase relative to wild-type [16]: 0.5 fold; Fold IC50 increase relative to wild-type [17]: 1.2 fold; Fold IC50 increase relative to wild-type [18]: 0.5 fold; Fold IC50 increase relative to wild-type [19]: 0.2 fold; Fold IC50 increase relative to wild-type [20]: 0.5 fold; IC50 neutralization [21]: 0.0276 µg/mL

4838_L06 (PGT-121) (antibody) was tested. Which neutralization IC90 [22] did it give?
The neutralization IC90 was 0.369 µg/mL.

And the neutralization IC95 [22]?
Its neutralization IC95 is 0.74 µg/mL.

And the neutralization IC80 [23]?
The neutralization IC80 was 1.31 µg/mL.

What about the neutralization IC90 [23] of the same substance?
The neutralization IC90 was 2.8 µg/mL.

What about the neutralization IC95 [23] of the same substance?
The neutralization IC95 was 5.15 µg/mL.

And the neutralization IC80 [24]?
The neutralization IC80 was 0.371 µg/mL.

What about the neutralization IC90 [24] of the same substance?
The neutralization IC90 was 0.799 µg/mL.

And the neutralization IC95 [24]?
Its neutralization IC95 is 1.55 µg/mL.

What about the neutralization IC80 [25] of the same substance?
Its neutralization IC80 is 3.29 µg/mL.

And the neutralization IC90 [25]?
Its neutralization IC90 is 6.26 µg/mL.

And the neutralization IC95 [25]?
Its neutralization IC95 is 9.39 µg/mL.

And the neutralization IC80 [26]?
The neutralization IC80 was 0.0231 µg/mL.

And the neutralization IC90 [26]?
The neutralization IC90 was 0.0414 µg/mL.

And the neutralization IC95 [26]?
Its neutralization IC95 is 0.0715 µg/mL.

What does the source list for 1496_C09 (PG9) (TCN-109) (antibody)?
IC50 (ug/ml), neutralization [27]: 0.1 µg/mL; IC50 [28]: 0.05 µg/mL; IC50 [29]: 0.258 µg/mL; IC50 (µg/mL), pseudovirus neutralization [30]: 0.148 µg/mL; IC50 (µg/mL), pseudovirus neutralization [31]: 0.067 µg/mL; IC50 (µg/mL), pseudovirus neutralization [32]: 0.222 µg/mL; IC50 (µg/mL), pseudovirus neutralization [33]: 24.8 µg/mL; IC50 (ug/ml), neutralization [34]: 0.006 µg/mL; IC50, pseudovirus neutralization [35]: 1.05 µg/mL; IC50, pseudovirus neutralization [36]: 34.8 µg/mL; IC50, pseudovirus neutralization [37]: 19.3 µg/mL; IC50, pseudovirus neutralization [38]: 3.44 µg/mL; IC50, pseudovirus neutralization [39]: 8.78 µg/mL

Which results are given for 5141_B17 (PGT-126) (antibody)?
IC50 [22]: 0.0256 µg/mL; IC80 [22]: 0.102 µg/mL; IC90 [22]: 0.238 µg/mL; IC95 [22]: 0.577 µg/mL; IC50 [23]: 0.012 µg/mL; IC80 [23]: 0.0411 µg/mL; IC90 [23]: 0.084 µg/mL; IC95 [23]: 0.162 µg/mL; IC50 [24]: 0.501 µg/mL; IC80 [24]: 4.43 µg/mL; IC90 [24]: > 10 µg/mL; IC95 [24]: > 10 µg/mL; IC50 [25]: 0.0639 µg/mL; IC80 [25]: 0.333 µg/mL; IC90 [25]: 0.832 µg/mL; IC95 [25]: 1.8 µg/mL; IC50 [26]: 0.0093 µg/mL; IC80 [26]: 0.0391 µg/mL; IC90 [26]: 0.0918 µg/mL; IC95 [26]: 0.205 µg/mL

How did the IC50 neutralization [2] turn out when PGT-122 (antibody) was run?
The IC50 neutralization was 0.0337 µg/mL.

What about the Fold IC50 increase relative to wild-type [4] of the same substance?
The Fold IC50 increase relative to wild-type was 44 fold.

What about the Fold IC50 increase relative to wild-type [5] of the same substance?
Its Fold IC50 increase relative to wild-type is 3.8 fold.

What about the Fold IC50 increase relative to wild-type [6] of the same substance?
The Fold IC50 increase relative to wild-type was 0.4 fold.

What about the Fold IC50 increase relative to wild-type [7] of the same substance?
The Fold IC50 increase relative to wild-type was 1.4 fold.

And the Fold IC50 increase relative to wild-type [8]?
The Fold IC50 increase relative to wild-type was 1.4 fold.

What about the Fold IC50 increase relative to wild-type [9] of the same substance?
Its Fold IC50 increase relative to wild-type is 1.1 fold.

And the Fold IC50 increase relative to wild-type [10]?
Its Fold IC50 increase relative to wild-type is 1.1 fold.

And the Fold IC50 increase relative to wild-type [11]?
Its Fold IC50 increase relative to wild-type is 0.7 fold.

What about the Fold IC50 increase relative to wild-type [12] of the same substance?
Its Fold IC50 increase relative to wild-type is 0.5 fold.

What about the Fold IC50 increase relative to wild-type [13] of the same substance?
The Fold IC50 increase relative to wild-type was 0.4 fold.

What about the Fold IC50 increase relative to wild-type [14] of the same substance?
The Fold IC50 increase relative to wild-type was 0.6 fold.

And the Fold IC50 increase relative to wild-type [15]?
Its Fold IC50 increase relative to wild-type is 0.8 fold.

And the Fold IC50 increase relative to wild-type [16]?
The Fold IC50 increase relative to wild-type was 0.9 fold.

And the Fold IC50 increase relative to wild-type [17]?
The Fold IC50 increase relative to wild-type was 1.5 fold.

What about the Fold IC50 increase relative to wild-type [18] of the same substance?
The Fold IC50 increase relative to wild-type was 0.3 fold.

And the Fold IC50 increase relative to wild-type [19]?
Its Fold IC50 increase relative to wild-type is 0.6 fold.

And the Fold IC50 increase relative to wild-type [20]?
The Fold IC50 increase relative to wild-type was 0.8 fold.

And the IC50 neutralization [21]?
Its IC50 neutralization is 0.0471 µg/mL.

2G12 (antibody) was tested. Which IC90 (pseudovirus neutralization) [40] did it give?
Its IC90 (pseudovirus neutralization) is greater than 50 µg/mL.

PGV04 (antibody) was tested. Which IC50 [28] did it give?
The IC50 was 0.108 µg/mL.

What about the IC50 [29] of the same substance?
Its IC50 is 0.31 µg/mL.

What about the IC50 (µg/mL), pseudovirus neutralization [30] of the same substance?
The IC50 (µg/mL), pseudovirus neutralization was greater than 50 µg/mL.

What about the IC50 (µg/mL), pseudovirus neutralization [31] of the same substance?
The IC50 (µg/mL), pseudovirus neutralization was 0.149 µg/mL.

And the IC50 (µg/mL), pseudovirus neutralization [32]?
Its IC50 (µg/mL), pseudovirus neutralization is 2.52 µg/mL.

What about the IC50 (µg/mL), pseudovirus neutralization [33] of the same substance?
Its IC50 (µg/mL), pseudovirus neutralization is 0.454 µg/mL.

What about the IC50, pseudovirus neutralization [35] of the same substance?
Its IC50, pseudovirus neutralization is 0.757 µg/mL.

What about the IC50, pseudovirus neutralization [36] of the same substance?
Its IC50, pseudovirus neutralization is 0.309 µg/mL.

What about the IC50, pseudovirus neutralization [37] of the same substance?
Its IC50, pseudovirus neutralization is 2.26 µg/mL.

And the IC50, pseudovirus neutralization [38]?
Its IC50, pseudovirus neutralization is 0.142 µg/mL.

What about the IC50, pseudovirus neutralization [39] of the same substance?
Its IC50, pseudovirus neutralization is 0.166 µg/mL.

1443_C16 (PG16) (TCN-116) (antibody) was tested. Which IC50 (ug/ml), neutralization [27] did it give?
Its IC50 (ug/ml), neutralization is 0.09 µg/mL.

What about the IC90 (pseudovirus neutralization) [40] of the same substance?
The IC90 (pseudovirus neutralization) was greater than 50 µg/mL.

And the IC50 (ug/ml), neutralization [34]?
Its IC50 (ug/ml), neutralization is 0.001 µg/mL.

And the IC50, pseudovirus neutralization, 1 hour Virus/Ab Incubation [1]?
Its IC50, pseudovirus neutralization, 1 hour Virus/Ab Incubation is greater than 50 µg/mL.

And the IC50, pseudovirus neutralization, 18 hour Virus/Ab Incubation [1]?
Its IC50, pseudovirus neutralization, 18 hour Virus/Ab Incubation is greater than 50 µg/mL.

VRC01 (antibody) was tested. Which IC50 [3] did it give?
Its IC50 is 0.29 µg/mL.
